The nature of this data set: soluble on expression in E. coli; label from the status in PepcDB or PDB records.
Take “MSITIFNRDLKEIYYEKQYKNGQLKFLYNTILGRMLLKLFISTRLFSKINAIFNNNKGSIKKIEPFINEYKIDMSEYEKKEYTSFDDFFTRKILEGKRSFSKEKSHLISPADSKLMVYEIDDDLKMNIKNSIYTVGELLNDEKLSREYKNGTCLIFRLTVDDYHRYCFIDDGSLKYRKVINGRLHTVGPISSKRYKVYSENNREYSVLKTRNFGKVIQIEVGALLVGKIKNHSIKVFKKGDEKGYFCFGGSTIVLLFKEKVIKMDEDILEYSKAGIETKIKMGEKIGETNDLEHHHHHH”: the “soluble on expression in E. coli” value is recorded as “soluble”. As to “MHSQQRPNPQMNRHPYGTPGSAPQMRRPGGFAGQPPQMHGPRMVAPPAAPLPKKKKYADKCIHPKIRELEPDAENYMALLASEQKLDSTLSRKKLDIQEALKRPSKVKKRLRIYISHTFIEEKQPEKDTDEASLPMWELRVEGRLLDEQPPAPAIPGQRPVPKRKFSSFFKSLVIELDKEMYGPDQHLVEWHRTPQTNETDGFQVKRAGDRPVKCRILLLLDNHPAKFKLHPRLAKVLGIATETRPKIIEALWQYIKTHGLQDPQERDIINCDTFLSQCFGVNRMRFMEVPNKLHQLLQQTDPLEFNHIIQRPKEGQEQVSTCYDIDVEMEDPVKQFMHTFVHSPGLANDIQTLDQKCYDIIEQINELKTRRDFYARFYTEPAEFIKSWVMSQNSDLKTMNELSGDLEAERFAESYVRPETEEGVQRYMFQKVNQKRHELEQSLGVRSN”, the “soluble on expression in E. coli” value is given as “not soluble”. Consider “ELVVTQESALTTSPGETVTLTCRSSSGAVTTSNYATWVQEKPDHLFTGLIGGTNKRAPGVPARFSGSLIGDRAALTITGAQTEDEAIYFCALWNSNHLVFGGGTKLEIKRTVAAPSVFIFPPSDEQLKSGTASVVCLLNNFYPREAKVQWKVDNALQSGNSQESVTEQDSKDSTYSLSSTLTLSKADYEKHKVYACEVTHQGLSSPVTKSFNRGEC”, for which the “soluble on expression in E. coli” value is “soluble”. For “MGSDKIHHHHHHMARINLEQLSTFLAVVRLGGVRRAATSLNLTQPAVTARIKNLEDNLDCELFDRTQSGMKLTKRGELLLGHAEKYEHLTQLVERDLVDPAGVEGRLRLGASETIAQCWLPDLVTRLHQLFPKLEIELVVDISANLRAGLMDRELDLAILLGPLSEFSVNNVELPDFELAWYAAADTSSEAIAASYLSRPVLTYPRNTRPYRELKEKLFEQAGPNFSLFPSSSLSACFRLVEADLGVAVLPRALGREYVLAGRIREFDPGWVPAPLRFTICYMGEPKSQLIETAAHMAREVAVDYHGDKNNL”, the “soluble on expression in E. coli” value was “not soluble”.

For “MGSDKIHHHHHHMQFVFDIDGTICFDRFQIDARIKAILKDAANYGHQISFASARSYRDCIDVLGQELSQKTVIGLNGGLAYKAGELILEKPMNHRAFDLALYYCHRYQLPYFVDDDFNYAHHLEQFIPFIHSVDPLKLAKEVGVEDLKHPIKMVVFFGNHLDKIAEVSHHLAKLEQLDITFHDDESCLYLNPKEVTKSSTIQELFDHDFVAFGNDRNDIAMFQAAVYSVQVGDFADLSPFADTQVLLRQDYHQAVADKIHETFEKFRA”, the “soluble on expression in E. coli” value is “not soluble”. In the case of “MSLKIAMIGLGDIAQKAYLPVLAQWPDIELVLCTRNPKVLGTLATRYRVSATCTDYRDVLQYGVDAVMIHAATDVHSTLAAFFLHLGIPTFVDKPLAASAQECENLYELAEKHHQPLYVGFNRRHIPLYNQHLSELAQQECGALRSLRWEKHRHALPGDIRTFVFDDFIHPLDSVNLSRQCNLDDLHLTYHMSEGLLARLDVQWQTGDTLLHASMNRQFGITTEHVTASYDNVAYLFDSFTQGKMWRDNQESRVALKDWTPMLASKGFDAMVQDWLQVAAAGKLPTHIIERNLASHQLAEAICQQITQQVTKGEGGSHHHHHH” it was “soluble”; in that of “MGSDKIHHHHHHMQRIAMISEHASPLASVGSVDSGGQNVYVAHLARQLGKSGYLVDVFTRRDKALLPDVVAFAPNVRVVHVPAGPAVFVPKEQLLSFMPAFGDSMVDFMRRDAIGYDVLHANFFMSGVAAMRAREVLDIPLVMTFHALGKVRRLHQGSADGFPDNRFEIEDELVRHADRVVAECPQDLDDLATLYGGDPERIDIVPCGFDEEEFAPLDRAEARRALDWDADVFTVLQLGRLVPRKGIDNVIRAIGHLRRDFRIPARLYVVGGNAEQPSVEATPEIGRLQGVADEAGVSDCVTFVGRRRRSQLCHFYSASDVFVTTPWYEPFGITPVEAMACGVPVVGADVGGIRSTVVDGETGYLVPPHAPEALADRLARLAGDRALARRMGAAGLQRAHANYTWMSVARTMEQVYARVMRAERPARRVAA”, “not soluble”.

Source of the values: the DeepSol protein solubility set.
